Patent US20250163122A1, “COMPOSITIONS AND METHODS FOR TREATING AIRWAY MUCUS DYSFUNCTION” (BOARD OF REGENTS, THE UNIVERSITY OF TEXAS SYSTEM, priority 2022, published 2025)
Where a SMILES comes first, the peptide text is derived from it. Bridges are numbered along the chain shown (N, C = ends). [ ]: non-standard residue; d: D form. S5 = C=CCCC[C@](C)(N)C(=O)O

Biological target: T1, airway SNAREs only (Homo sapiens, UniProt O00161+Q13277+Q9BV40, C112S/C79S/C80S/C83S/C85S/C87S)
T1 sequence (Q9BV40 1-100): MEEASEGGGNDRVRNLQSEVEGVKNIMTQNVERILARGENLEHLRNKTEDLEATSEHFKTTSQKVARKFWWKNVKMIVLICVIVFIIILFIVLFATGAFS
T1 sequence (Q13277 1-289): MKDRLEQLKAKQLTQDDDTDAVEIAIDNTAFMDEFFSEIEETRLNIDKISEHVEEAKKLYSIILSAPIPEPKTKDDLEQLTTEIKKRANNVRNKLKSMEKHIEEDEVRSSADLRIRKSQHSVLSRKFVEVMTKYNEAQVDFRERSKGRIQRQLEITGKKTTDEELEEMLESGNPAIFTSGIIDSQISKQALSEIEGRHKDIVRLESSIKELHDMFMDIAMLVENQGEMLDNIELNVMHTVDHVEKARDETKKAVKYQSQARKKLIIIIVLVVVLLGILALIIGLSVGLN
T1 sequence (O00161 1-211 C79S/C80S/C83S/C85S/C87S/C112S): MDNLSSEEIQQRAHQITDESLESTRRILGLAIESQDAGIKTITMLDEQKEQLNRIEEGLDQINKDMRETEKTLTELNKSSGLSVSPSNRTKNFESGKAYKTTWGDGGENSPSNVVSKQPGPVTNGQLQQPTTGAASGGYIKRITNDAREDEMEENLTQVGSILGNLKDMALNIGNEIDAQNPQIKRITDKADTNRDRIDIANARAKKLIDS
Test: Single vesicle content mixing assay, airway SNAREs only (VAMP8 vesicles)
Format: biochemical
Details: 10 μM peptide; raw count
Description: For single vesicle content mixing assay, the lipid composition of the SV, SG, VAMP2, or VAMP8 vesicles was phosphatidylcholine (PC) (48%), phosphatidylethanolamine (PE) (20%), phosphatidylserine (PS) (12%), and cholesterol (20%); for both the neuronal and airway PM vesicles the lipid composition was Brain Total Lipid Extract supplemented 3.5 mol % PIP2, and 0.1 mol % biotinylated phosphatidylethanolamine (PE). The reconstitution method for neuronal PM and SV vesicles was described in detail previously (see Lai et al., 2017; Kyoung et al., 2011; and Lai et al., 2014). The same methods were used for airway PM, SG, VAMP2, and VAMP8 vesicles. […] A 3-5 fold excess of SNAP-25A or SNAP-23 (with respect to Stx1A or Stx3) and 3.5 mol % PIP2 were added to the protein-lipid mixture for neuronal or airway PM vesicles. […] For the preparation of SV, SG, VAMP2, or VAMP8 vesicles for single vesicle content mixing assay, 50 mM sulforhodamine B (Thermo Fisher Scientific) was added to the protein-lipid mixture. The vesicles subsequently formed during size exclusion chromatography using a Sepharose CL-4B column, packed under near constant pressure by gravity with a peristaltic pump (GE Healthcare) in a 5.5 ml column with a 5 ml bed volume that was equilibrated with buffer V (20 mM HEPES, pH 7.4, 90 mM NaCl) supplemented with 20 μM EGTA and 0.1% 2-mercaptoethanol. The eluent was subjected to dialysis into 21 of detergent-free buffer V supplemented with 20 μM EGTA, 0.1% 2-mercaptoethanol, 5 g of Bio-beads SM2 (Bio-Rad) and 0.8 g/L Chelex 100 resin (Bio-Rad). After 4 hours, the buffer was exchanged with 21 of fresh buffer V supplemented with 20 μM EGTA, 0.1% 2-mercaptoethanol and Bio-beads, and the dialysis continued for another 12 h (overnight). […] For ensemble lipid mixing assay, the reconstitution method is the same as that for the single vesicle content mixing assay, except that 50 mM sulforhodamine B was omitted for all the steps. Single vesicle content mixing experiments. All single vesicle fusion and single molecule experiments were performed on a prism-type total internal reflection fluorescence (TIRF) microscope using 532 nm (green) laser (CrystaLaser) excitation. Two observation channels were created by a 640 nm single-edge dichroic […]36, Shemrock): one channel was used for the fluorescence emission intensity of the content dyes and the other channel for that of the Cy5 dye that are part of the injected Ca^2+-solution. The two channels were recorded on two adjacent rectangular areas (45×90 m^2) of a charge-coupled device (CCD) camera (iXon+DV […], Andor Technology). The imaging data were recorded with the […] software developed by Taekjip Ha, Johns Hopkins University, Baltimore. Flow chambers were assembled by creating a “sandwich” consisting of a quartz slide and a glass coverslip that were both coated with polyethylene glycol (PEG) molecules consisting 0.1% (w/v) biotinylated-PEG except when stated otherwise, and using double-sided tape to create up to five flow-chambers. The single vesicle content mixing assay described in Lai et al. (2014) was used to monitor vesicle-vesicle association, Ca^2+-independent, and Ca^2+-triggered fusion. The surface of the quartz slides was passivated by coating the surface with polyethylene glycol (PEG) molecules which alleviated non-specific binding of vesicles. […]

Compound | Ca2+ independent fusion events
CC[C@H](C)[C@H](NC(=O)[C@]1(C)CCCC=CCCC[C@](C)(NC(=O)[C@H](CCC(=O)O)NC(=O)[C@H](CCC(=O)O)NC(C)=O)C(=O)N[C@@H](CCCCN)C(=O)N[C@@H](CC(=O)O)C(=O)N[C@@H](C)C(=O)N1)C(=O)N[C@@H](CCCNC(=N)N)C(=O)N[C@@]1(C)CCCC=CCCC[C@@](C)(C(=O)N[C@@H](CC(=O)O)C(=O)N[C@@H](CCC(=O)O)C(=O)N[C@@H](CCC(N)=O)C(=O)N[C@@H](CS)C(N)=O)NC(=O)[C@H](CCSC)NC(=O)[C@H](C(C)C)NC(=O)[C@H](CC(C)C)NC1=O [SP9, Ac-EE(S5)KDA(S5)IR(S5)LVM(S5)DEQC-amide] (Ac-EE[S5]KDA[S5]IR[S5]LVM[S5]DEQC-NH2; staple 3-7, 10-14) | 22
Ac-SKD(S5)GIR(S5)LV(S5)LDE(S5)GEQL-amide (Ac-SKD[S5]GIR[S5]LV[S5]LDE[S5]GEQL-NH2; staple 11-15, 4-8; SMILES CC[C@H](C)[C@@H]1NC(=O)CNC(=O)[C@@](C)(NC(=O)[C@H](CC(=O)O)NC(=O)[C@H](CCCCN)NC(=O)[C@H](CO)NC(C)=O)CCCC=CCCC[C@@](C)(C(=O)N[C@@H](CC(C)C)C(=O)N[C@H](C(=O)N[C@@]2(C)CCCC=CCCC[C@@](C)(C(=O)NCC(=O)N[C@@H](CCC(=O)O)C(=O)N[C@@H](CCC(N)=O)C(=O)N[C@@H](CC(C)C)C(N)=O)NC(=O)[C@H](CCC(=O)O)NC(=O)[C@H](CC(=O)O)NC(=O)[C@H](CC(C)C)NC2=O)C(C)C)NC(=O)[C@H](CCCNC(=N)N)NC1=O) [SP10] | 18
Ac-SKD(S5)GIR(S5)LVMLDE(S5)GEQ(S5)DR-amide (Ac-SKD[S5]GIR[S5]LVMLDE[S5]GEQ[S5]DR-NH2; staple 15-19, 4-8; SMILES CC[C@H](C)[C@@H]1NC(=O)CNC(=O)[C@@](C)(NC(=O)[C@H](CC(=O)O)NC(=O)[C@H](CCCCN)NC(=O)[C@H](CO)NC(C)=O)CCCC=CCCC[C@@](C)(C(=O)N[C@@H](CC(C)C)C(=O)N[C@H](C(=O)N[C@@H](CCSC)C(=O)N[C@@H](CC(C)C)C(=O)N[C@@H](CC(=O)O)C(=O)N[C@@H](CCC(=O)O)C(=O)N[C@@]2(C)CCCC=CCCC[C@@](C)(C(=O)N[C@@H](CC(=O)O)C(=O)N[C@@H](CCCNC(=N)N)C(N)=O)NC(=O)[C@H](CCC(N)=O)NC(=O)[C@H](CCC(=O)O)NC(=O)CNC2=O)C(C)C)NC(=O)[C@H](CCCNC(=N)N)NC1=O) [SP1] | 26
Ac-SKDA(S5)IRT(S5)VM(S5)DEQ(S5)EQL-amide (Ac-SKDA[S5]IRT[S5]VM[S5]DEQ[S5]EQL-NH2; staple 12-16, 5-9; SMILES CC[C@H](C)[C@@H]1NC(=O)[C@@](C)(NC(=O)[C@H](C)NC(=O)[C@H](CC(=O)O)NC(=O)[C@H](CCCCN)NC(=O)[C@H](CO)NC(C)=O)CCCC=CCCC[C@@](C)(C(=O)N[C@H](C(=O)N[C@@H](CCSC)C(=O)N[C@@]2(C)CCCC=CCCC[C@@](C)(C(=O)N[C@@H](CCC(=O)O)C(=O)N[C@@H](CCC(N)=O)C(=O)N[C@@H](CC(C)C)C(N)=O)NC(=O)[C@H](CCC(N)=O)NC(=O)[C@H](CCC(=O)O)NC(=O)[C@H](CC(=O)O)NC2=O)C(C)C)NC(=O)[C@H]([C@@H](C)O)NC(=O)[C@H](CCCNC(=N)N)NC1=O) [SP4] | 16
EESKDAGIRTLVMLDEQGEQLD [Peptide P0, non-stapled SNAP-25A fragment used as a control, reference compound] | 38
